Assays:
[1] = substrate: C[S+](C)(=O)CCC(=O)[O-]; assay: HPLC of DMSO, initial rates, non-linear fit; format: biochemical, Psychrobacter sp.; conditions: pH 8, 30 °C, CoA, ATP, Mg2+ present
[2] = substrate: C[S+](C)(=O)CCC(=O)[O-]; assay: HPLC of acrylate, initial rates, non-linear fit; format: biochemical, Emiliania huxleyi; conditions: pH 8, 30 °C
[3] = substrate: C[S+](C)(=O)CCC(=O)[O-]; assay: HPLC of acrylate, initial rates, non-linear fit; format: biochemical, Candidatus Pelagibacter communis; conditions: pH 8, 30 °C
[4] = substrate: C[S+](C)(=O)CCC(=O)[O-]; assay: HPLC of acrylate, initial rates, non-linear fit; format: biochemical, Alcaligenes faecalis; conditions: pH 8, 30 °C
[5] = substrate: C[S+](C)(=O)CCC(=O)[O-]; assay: HPLC of acrylate, initial rates, non-linear fit; format: biochemical, Ruegeria pomeroyi; conditions: pH 8, 30 °C
Description: HPLC of acrylate, initial rates, non-linear fit on DddW | Only the catalytic efficiency of DddW for DMSOP was similar to that for DMSP

B1: DddX (Psychrobacter sp.) (protein)
chain: LTGQIIEYTIKIQTIYTGNFKHKNGFLKMIERGIAMKKENLKILAKKAQTIAIVGANYRFATRVLLENLDKMDFTGTIYLVNPRYENIDGVRCYQSLLEIEDTIDVVVGLVNPQLMIQVASNASKINAKVLVIPGGGYGESGVEGQNIQNAILERAADSGMRIVGPNCMGYLNMHAQFTPYIGTLHRPLRPIKKGPVSIISQSGSVNDAFIASKLGISKIYSTGNEADVQMHDYLNLLAEDPETSVIILYIEAIRNHLSFLRALDLCSKNKKPVIAIKVGRTIKSAAVANAHSGALAGDYEIEKLFLEGHGVLFVEDIDQAVAVALLLSQPYLPTVNTVAALTVSGGQAGILLDLAEDYGVDFPDFSAVTNYEIASKLPELGGLSNPLDIWGKSSKDFSEVSNICLSSIVKDADIGIITVAIDAPIGQGDHEFDFTSIPAKDLASLRGNSDKPFLYFSHIQTEFDPRVESILDEAGIAVIQGSRNALVACRALFKYKEFLEKNNHTPIYSVEDLSIQKGLKLLHDNEGRKLLDESGFVSPREQVVTSLQEGVDYAESIGYPVVLKAQGLAHKTDVGGVALNIKSAAKLKKAWGKMEHLNSPYYLIQEMVTDGFETILAYRTDMNYGPVVIFGLGGIYTELFNEVVLAVPPITHKKAEQMVKSIPMLWKSIEGYRGNPALDLEALTASIVQMGETAMEKYEEIVEFEINPLSVRVKGVVALDVLASVKTTAAKEADAEEADVKKCSELV
notes: pET-22b, C-terminal His tag, E. coli BL21(DE3); Ni-NTA and gel filtration
[1]
  Km: 1 ± 0.2 mM

B2: Alma1 (Emiliania huxleyi) (protein)
chain: MGNCTSHPHHEPQVHFDTVDGMATVKAFAGIRQVTMGVLRIDYEYQTNLGDILDPRSFDFRIISATAEGLTFAKAKAGDKLDATGKELLERAVRQLIDNGADFIVGDCGFLVYWQVMVRDYAQDYAQKKYGRKCPVMMSSLVLALPLLATIPSGGQIGILTASEKSLQAVQKKLPIVIEDHQKEDGGQRSRSVPAAEDPSGIMINFSDPRFKVVGLDEVKDFKHALDAQGADAVNDRRDIAVQIAAYCQKVQEKNPQIAAWLIECTEAGGFAWAIKVGTGLPVWDPITLGRFLSLGFTANVPNVALTLGQHGENPLDPSATTAGKGRCTGEEPGQIHALGAEFQAIREGTL
notes: as for B1
[2]
  Km: 8.8 ± 1.1 mM
  kcat: 0.2 ± 0.01 s⁻¹

B3: DddK (Candidatus Pelagibacter ubique HTCC1062) (protein)
chain: MIFVKNLASVLSQEWSSTEKYPGVRWKFLIDADFDGSSGLSLGFAEIAPGGDLTLHYHSPAEIYVVTNGKGILNKSGKLETIKKGDVVYIAGNAEHALKNNGKETLEFYWIFPTDRFSEVEYFPAKQKSG
notes: pET-22b, C-terminal His tag, E. coli BL21(DE3); Ni-NTA and gel filtration; dimer in asymmetric unit; Mn2+
[3]
  Km: 24.1 ± 3.4 mM
  kcat: 14.8 ± 0.9 s⁻¹

B4: A. faecalis DddY (Alcaligenes faecalis) (protein)
chain: AQFQCQDDVKPAAISAEEQKLVDQFWAESLVYLEQYLKALETPTGQCKDSAQATIQTYHSETGKAQTRCIMKYRDMELLAKHLKAVLAEPDKAKACFDPQKNYKEFTLYTPSSQVQQLSATSTWINRPLLTDYYTKMGGAIGAAGLELNENFLAITSRTDTTAHWTRDVSIKGLPTLWSSVGWVPLYAENPAAGSDRFRGGYLYAELMGPWGNLRIKEINGEKVGAEIGMTVQLFNTSYPFHYHHPQETYMTLTKPQCVDQNKYMVMHWDSDQFTQTRSDKGWTVEIDGSKERWKKWFANQDVNKEWLTYFERNAIHAFHALEGCNQTIQNSGLVAVWARSTSQDNEQFTQLCRPASGPDGVKRMRPGQKTVCDVRDWKP
notes: as for B1
[4]
  Km: 41.0 mM
  kcat: 26.5 s⁻¹

B5: DddW (Ruegeria pomeroyi DSS-3) (protein)
chain: MTAMLDSFATDLTAATSLHQPGNLPHPPHAIDAENVPLSGGTDPTYGEVRWRTLINGTEAAPRDMVLGIAEFGPGHQLRPHRHTPPEFYLGLEGSGIVTIDGVPHEIRAGVALYIPGDAEHGTVAGPEGLRFAYGFASASFEAIEYRFTASA
notes: pET-22b, C-terminal His tag, E. coli BL21(DE3)
[5]
  Km: 11.2 ± 1.6 mM
  kcat: 26.7 ± 3.9 s⁻¹
